Test results from the nanobody polyreactivity screen of Harvey et al. (2022).

Test: yeast display, Sf9 membrane polyspecificity reagent, FACS + sequencing; frameworks hold sequencing errors
Method in brief: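 A nanobody's polyreactivity label depends on the gate it was sorted from. Yeast display cells were stained with 10% biotinylated, detergent-solubilized Sf9 membrane reagent for 1 hour at 4 °C, enriched on streptavidin microbeads and sorted by FACS. The low and high (top ~1%) gates were set on anti-HA fluorescence for expression and streptavidin fluorescence for reagent binding.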

Row | Sequence | polyreactivity (PSR sort gate)
1 | QVQLVESGGGLVQAGGSLRLSCAASGRIFRKYAMGWYRQAPGKERELVAAINWSGGSTYYADSVKGRFTISRDNAKNTVYLQMNSLKPEDTAVYYCAAYVRRVGYYYWGQGTQVTVSS | high polyreactivity
2 | QVQLVESGGGLVQAGGSLRLSCAASGRIFGVNAMGWYRQAPGKERELVAAINFSGGGTYYADSVKGRFTISRDNAKNTVYLQMTSLKPEDTAVYYCAADGPDYKWYYELDYWGQGTQVTVSS | low polyreactivity
3 | QVQLVESGGGLVQAGGSLRLTCAASGSNFQYYAMGWYRQAPGKERELVAAISSGDTTNYADSVKGRFTISRDNAKNTVYLQMNSLKPEDTAVYYCNAEGGWYDWDDYWGQGTQVTVSS | low polyreactivity
4 | QVQLVESGGGLVQAGGSLRLSCAASGRIFGKNVMGLYRKAPGKERELVAAINRSSRTYYADSVKGRFTISRDNAKNTVYLQMNSLKPEDTAVYYCAAHAFPDGDYWGQGTQVTVSS | high polyreactivity
5 | QVQLVESGGGLVQAGGSLRLSCAASGFTFGSYAMGWYRQAPGKERELVAVITRSGRTNYADSVKGRFTISRDNAKNTVYLQMNSLKPEDTEVYYCNADDVDDEVSPDLTEMDYWGQGTQVTVSS | low polyreactivity
6 | QVQLVESGGGLVQAGGSLRLSCAASGFTVGSNAMGWYRQAPGKERELVAAISRSSGRTYYADSVKGRFTISRDNAKNTVDLQMNSLKPEDTAVYYCAAQTRYRISLQYYYWGQGTQVTVSS | high polyreactivity
7 | QDQLVESWGALVQAGGRLRLICAASGTIFSRNTMRSYRQAPGKDRELVAGISSSGSRTYYADSVKGRFTISRDNAKNTVYLQMNSLKPEDNAVYYCAAEHQRSRGRRYYIGYDYWGQGTQVTVSS | low polyreactivity
8 | QVQLVESGGVLVQAGGSLRLSCAASGFTLKWNAMGWYRQAPGKERELVARISRSGGSTNYADSVKGRFTISRDNAKNTVYLQMISLKPEDTAVFYCNTPSSREMDYWGQGTQVTVSS | low polyreactivity
9 | QVKHVESGGGLVQAGGSLRLSCAASGFTFSYYAMGWFRQAPGKERELVAAITSGGSTYYADYVKGRFTISRDNAKNTVYLQMNSLKPEDTAVYYCNADGWYYPTDDYWGHGTQVTVSS | low polyreactivity
10 | QVQLVESGGGLVQAGGSLRLSCAASGRIFPSYAMGWYRQAPGKERELVAAISDSDGSTYYADSVKGRFTISRDNAKNTVYLQMNSLKPEDTAVYYCAAEGSYPAYDYWGQGTQVTVSS | low polyreactivity
11 | QVQLVESGGGLVQAGGSLRLSCAASGIIFAYYALGWYRQAPGKERELVAGITQSGGDTYYADSVKGRFTISRDNAKNTVYLQLNSLKPEDTAVYYCAAGWWGYDYWGQGTQVTVSS | high polyreactivity
12 | QVRLVESGGGLVQAGGSLRLSCAASGSTFWSYAMGWYRQAPGKERELVAAISWSGDSTYYADSVKGRFTISRDNAKNTVYLQMNSLKPEDTAVYYCAADYTGSFYTYDYWGQGTQVTVSS | low polyreactivity
13 | QVQLVESGRGLVQAGGSLRLSCAASGITYGNNAMGWYRQAPGKERELVATITSSGGSTYYADSVKGRFTISRDNAKNTVYSQMNSLKPEDTAVYYCAARQPGTRYPYDYWGQGTQVTVSS | high polyreactivity
14 | QVQLVESGGGKVQAGGSLRLSCAASGRILHEYAMGWYRQAPGKERELVAAITFSGTSTYYADSVKGRFTISRDNAKNTVYLQMYSLKPEDTAVYYCAADTYGGSRDYWGQGTQVTVSS | low polyreactivity
15 | QVQLVESGGGLVQAGGSLRLSCAASGRTFRVNAMGWYRQAPGKERELVAAITSSGGNTYADSVKGRFTISRDNAKNTVYLQMNSLKPEDTAVYYCAAVSSTRGDYWGQGTQVTVSS | high polyreactivity
16 | QVQLVESGGGLVKAGGSLRLSCAASGRIFNWYAMGWYRQAPGKEREFVAAITFSGGSTYYADSVKGRFTISRDNAKNTVYLQMNSLKPEDTAVYYCAAEIYFFVSYDYWGQGTQVTVSS | low polyreactivity
17 | QVQLVESGGGLVQAGGSLRLSCAASGIIFYPYAMGWYRQAPGKERELVAAISTSGGRTYYADSVKGRFTISRDNAKNTVYLQMNSLKPEDTAVYYCAADNSSGDVNGGGYWGQGTQVTVSS | low polyreactivity
18 | QFQLVESGGGLVQAGASLRLSSAASGSTFVFYAMGWYRQAPGKERELVATISTGVSTYADSVKGRFTISRDNAKNTVYLQMNSLKPEDTAVYYCAADSLFGHYDYSGQGTQVTVSS | low polyreactivity
19 | QVQLVESGGGLVQAGGILRLSCPASGIIFDGNVMGWYRQAPGKEREFVASISISGGSTSYADSVKGRFTISRDNAKNTVYLQMNSLKPEDTAVYYCNTDVGYGRVWRWRYHGDYWGQGTQVTVSS | low polyreactivity
20 | QVQLVESAGGLVQAGGSLRLSCAASGSTFFTYTMGWYRQAPGKERELVAAISSGGSTYYADSVKGRFTISRDNAKNTVYLQMNSLKPEDTAVYYLLRGQGTQVTVSS | low polyreactivity
21 | QVQLVESGGGLVQAGGSLRLSCAASGSTFGYNAMGWYRQAPGKERELVAAITRSGGSTDYADSVKGRFTISRDNAKNTVYFQMNSLKPEDTAVYYCAAEGTGLQRYGYFGDDGYWGQGTQVTVSS | low polyreactivity
22 | QVQLVESGGGLVQAGGSLRLSCAASGLTFYYYAMGWYRQAPGKERELVAAISRSGGSTYYADSVKGRFTISRDNAKNTVYLQMNSLKPEDTAVYYCAADYFTLYPYRGYDYWGQGTQVTVSS | low polyreactivity

Row | Sequence | polyreactivity (PSR sort gate)
23 | QVQLVESGGGLVHAGGSLRLSCAASGMTFTKNVMGWYRQSPGKERELVAVISRSGGSTYYADSVKGRFTISRDNAKNTVYLQMNSLKPEDTAVYYCNVKGPGPSRGNYWGQGTQVTVSS | low polyreactivity
24 | QVQLVESGGGLVQAGGSLRLICAASGFIFVWYAMGWYRQAPGKERELVAAISRRGGGTYYADSVKGRFTISRDNAKNTVYLQMNSLKPEDTAVYYCAAGSYYRYGYDFNYWGQGTQVTVSS | high polyreactivity
25 | QVQLVESGGGLVQAGGSLRLSCAASGRTFNTYTMGWYRQAPGKERELVAAITGTGGSTFYADSVKGRFTISRDNAKNTVYLQMNSLKPEDTAVYYCNADLEGTIGVYTDGFDSDYWGQGTQVTVSS | low polyreactivity
26 | QLQLVESGGGLVQAGGSLRLSCAASGSIFRWYTMGWYRQAPGKERELVAAISSGGSTNYADSVKGRFTISRDNAKNTVYLQMNSLKPEDTAVYYCAARAIYKSKYDYWGQGTQVTVSS | high polyreactivity
27 | QVQLVESGGGLVQAGGSLRLNSAASGSIFYRYAMRWYRQAPGKERELVAAISSNGGRTYYADSVKGRFTISRDNSKNTVYLQMNSLKPEDTAVYYCATLPGYSMDYWGQGTQVTVSS | high polyreactivity
28 | QVQLVESGGGLVQAGGSLRLSCAASGNIFAYYAMGWYRQAPGKEREFVAAIRSSGVSTYYADSVKGRFTISRDNAKNTVYLQMNSLKPEDTAVYYCAADSITGGWLIVSPPYNYTYDYWGQGTQVTVSS | low polyreactivity
29 | QVQLVESRGGLLQAGGSLRLSCAASGFTFRQYTMGWYRQAPGKERELVAGITSSGTRTYYADSVKGRFTISRDNAKNTVYLQMNSLKPEDTAVYYCATYSRWDYGYWGQGTQVTVSS | high polyreactivity
30 | QVQLVESGGGLVQAGGSLRLSCAASGRTFYVYAMGWYRQAPGKERELVAAISKSGGSTYYADSVKGRFTISRDNAKNTVYLQMNSLKPEDTAVYYCAARKSDPRTKLYNYWGQGTQVTVSS | high polyreactivity
31 | QVQLVESWGGLVQAGGSLRLSCAASGSIFSYYGMGRYRQARGKERELVAAITRSTGSTYYADSVKGRFTISRDNAKNTVYLQMNSLKPEDTAVYYCATDYVVLWEFDYWGQGTQVTVSS | low polyreactivity
32 | QVQLVESGGGLVQEGGSLRLSCAASGSIFLQYAMGWYRQAPGKERELVAGISLRGCSTYYADSVKGRFTISRDNAKNTVYVQLNSLKPEDTAVYYCAADVIVTVETHTSGPSFTEYDYWGQGTQVTVSS | low polyreactivity
33 | QVQLVESGGGLVQAGGSLRISCAASGGTFVPYAMGRSRQAPGKERELVARISKRGGTTYYADSVKGRFTISRDIGKNTVYLQMNSLKPEDTAVYYCAAVLPARGYYWGLGTQVTVSS | high polyreactivity
34 | QVQLEESGGGLVQAGGRLRLSCAASGIIFGYYAIGWYRQAPGKERELVAAISSGGTTSYADSVKGRFTISRDNAKNTVYLQMNSLKPEDTSVYYCSARDWYDGFYYWGQGTQVTVSS | low polyreactivity
35 | QVQLVESGGGLVQAGGSLRLSCAAAGSIFYYNAMGWYRQAPGKERELVASIRAHGGNTYYADSVKGRFTISRDNAKNTVYLQMNSLKPEDTAVYYCAKESRYAHLYYYWGLGTQVTVSS | low polyreactivity
36 | QVQLVESGAGLVQAGGSLRISCAASGSIFTNAMGWYRQAPGKERELVAAISSSGGSTYYADSVKGRFTISRDNANNTVYLQMNSLKPEDTAVYYCAADHYGGRDYWGQGTQVTVSS | low polyreactivity
37 | QVQLVESGGGLVQAGGSLRLSCAASGSIFSHNAMGWYRQAPGKERELVAAISWSAASTYYADSVKGRFTISRDNAKNTVYLQMNSLKPEDTAVYYCAAVPYSSTYRYDYWGQGTQVTVSS | low polyreactivity
38 | QVQLVESGGGLVQAGRSLRLSCAASGSTFGSNAMGWYRLAPGKERELVAAITRRGGSTYYADSEKGRFTISRDNAKNTVYLQMNSLKPEDTAVYYCAAQIHPRRDYSAFDYWGQGTQVTVSS | low polyreactivity
39 | QVQLVESGGGLVHAGGSLRLSCAASGSTFDRNAMGWARQAPGKDMELVDAISRSGGSTNYADSVKGRFTISRDNAKNTVYLQMNSLKPEDTAVYYCAAVRPLWYGQGWALYWFEYWGQGTQVTVSS | low polyreactivity
40 | QVQLEESGGGLVQAGGSLRLTCAASGRTFLGNAMGSYRQAPGKEREFVAVISHSGGGTSYADSVKGRFTISRDNAKNTVYLQMNSLKAEETAVYYCAAYSVSSTTWYYYDEYGYWGQGTQVTVSS | low polyreactivity
41 | QVQLVESGGGLVQAGGSLRLSCAASGRIFSLYAMGWYRQAPGKERELVAAISKRGGSTYYADSVKGRFTISRDNAKNTVYLQMNSLKPEDTAVYYCATQLPFRKPWHDYWGQGTQVTVSS | high polyreactivity
42 | QVQLVESGGGLVQAGGSLRLSCAASGYTFGFYAMGWYRQAPGKERELVAAISRSGGRTYYADSVKGRFTISRDNAKNTVYLQMNSLKPEDTAVYYCAAYQYGMDYWGQGTQVTVSS | high polyreactivity
43 | QVHLVESGGGLVQAGRSLRISCAASGRTFYGYAMGWYRQAPGKERELVAAITNGGRTYYADSVKGRFTISRDNAKNTVYLQMNSLKPEDTAVYYCAAGTGRGRSTLGSYYWGQCTQVTVSS | high polyreactivity
